How the values were obtained:
[1] = target: hexameric IgM 2G12 (human); assay: ELISA; competition: IgM coated (2 µg/mL); serially diluted ACB or AD2 mixed with a constant sC1q (10 µg/mL final); TBS with 2% PVP, 5 mM CaCl2, 1.5 mM MgCl2; room temperature; bound sC1q detected with anti-C1q HRP; relative IC50: OD at the highest mimetic value as 100%, without mimetic as 0%, approximate values
[2] = target: pentameric IgM HB617 (UniProt P01591); assay: as above
[3] = target: pentameric IgM 2G12 (UniProt P01591); assay: as above
[4] = target: pentameric IgM HB617 (UniProt P01591)

| Substance | maximal inhibition of sC1q binding [1] [%] | relative IC50 [1] [µg/mL] | maximal inhibition of sC1q binding [2] [%] | relative IC50 [2] [µg/mL] | maximal inhibition of sC1q binding [3] [%] | relative IC50 [3] [µg/mL] | competitive complement activation ELISA, reduction in C4b deposition by ACB against sC1q on coated 5IgM HB617; 8-fold (20% reduction) to 16-fold (w/w) excess of ACB over sC1q [4] [%] | percent inhibition of sC1q binding at 2.5–20 µg/mL ACB (lower end) [1] [%] |
| --- | --- | --- | --- | --- | --- | --- | --- | --- |
| C1q mimetic ACB-AD2 (ACB fused to domain 2 of human serum albumin) (from UniProt P02745 115-245; P02747 115-245; P02746 117-253; P02768 211-403) | 47 | 0.6 | 39 | 1.3 | 23 | 1.3 | – | – |
| C1q mimetic ACB (single-chain globular region of C1q) (from UniProt P02745 115-245; P02747 115-245; P02746 117-253) | 77 | 1.3 | 70 | 1.3 | 59 | 1.3 | 60 | 67 to 77 |

Source: article PMC11123335
